The source of these data is patent publication US20240059758A1 (CORAT THERAPEUTICS, published 2024).

Where only a bound is given, the exact number is not on record here.

For assay [1], the target named is T1, receptor binding domain (RBD) of the S1-subunit of SARS-CoV-2 glycoprotein S (SARS-CoV-2, UniProt P0DTC2 319-541). Briefly: ACE2:RBD competition, antibody at 0.5 µg/ml.
The target in assay [2] is SARS-CoV-2 glycoprotein S (SARS-CoV-2, UniProt P0DTC2 14-1273). The experiment in a line: cell-based or functional assay.
Assay [3] addresses T1, receptor binding domain (RBD) of the …. Briefly: ACE2:RBD competition, antibody at 5 µg/ml.
For assay [4], the target named is receptor binding domain (RBD) of the S1-subunit of SARS-CoV-2 glycoprotein S (SARS-CoV-2, UniProt P0DTC2 319-541). Briefly: RBD-binding quality as compared to STE90-C11, wt.
A further assay concerns the target SARS-CoV-1 Spike protein (SARS-CoV-1, UniProt P59594 14-667). The experiment in a line: titration ELISA. For orientation: ELISA stands for enzyme-linked immunosorbent assay.
Another assay addresses T2, HCoV-229E Spike protein (HCoV-229E, UniProt P15423 16-560).
T2 sequence: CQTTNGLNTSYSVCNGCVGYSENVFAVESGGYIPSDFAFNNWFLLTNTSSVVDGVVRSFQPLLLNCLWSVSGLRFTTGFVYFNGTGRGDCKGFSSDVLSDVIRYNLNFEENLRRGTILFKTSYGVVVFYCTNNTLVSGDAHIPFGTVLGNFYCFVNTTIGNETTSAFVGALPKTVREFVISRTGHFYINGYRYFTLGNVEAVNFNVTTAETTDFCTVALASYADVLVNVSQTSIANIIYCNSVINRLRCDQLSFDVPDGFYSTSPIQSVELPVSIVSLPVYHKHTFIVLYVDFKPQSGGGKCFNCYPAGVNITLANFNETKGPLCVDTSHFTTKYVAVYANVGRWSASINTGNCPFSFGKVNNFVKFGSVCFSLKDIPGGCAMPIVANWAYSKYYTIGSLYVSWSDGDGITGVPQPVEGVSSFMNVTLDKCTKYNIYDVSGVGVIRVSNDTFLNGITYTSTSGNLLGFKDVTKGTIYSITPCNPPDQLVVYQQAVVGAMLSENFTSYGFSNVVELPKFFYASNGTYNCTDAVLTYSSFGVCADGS
The experiment in a line: titration ELISA.

In a further assay the target is T3, HCoV-NL63 Spike protein (HCoV-NL63, UniProt Q6Q1S2 19-717).
T3 sequence: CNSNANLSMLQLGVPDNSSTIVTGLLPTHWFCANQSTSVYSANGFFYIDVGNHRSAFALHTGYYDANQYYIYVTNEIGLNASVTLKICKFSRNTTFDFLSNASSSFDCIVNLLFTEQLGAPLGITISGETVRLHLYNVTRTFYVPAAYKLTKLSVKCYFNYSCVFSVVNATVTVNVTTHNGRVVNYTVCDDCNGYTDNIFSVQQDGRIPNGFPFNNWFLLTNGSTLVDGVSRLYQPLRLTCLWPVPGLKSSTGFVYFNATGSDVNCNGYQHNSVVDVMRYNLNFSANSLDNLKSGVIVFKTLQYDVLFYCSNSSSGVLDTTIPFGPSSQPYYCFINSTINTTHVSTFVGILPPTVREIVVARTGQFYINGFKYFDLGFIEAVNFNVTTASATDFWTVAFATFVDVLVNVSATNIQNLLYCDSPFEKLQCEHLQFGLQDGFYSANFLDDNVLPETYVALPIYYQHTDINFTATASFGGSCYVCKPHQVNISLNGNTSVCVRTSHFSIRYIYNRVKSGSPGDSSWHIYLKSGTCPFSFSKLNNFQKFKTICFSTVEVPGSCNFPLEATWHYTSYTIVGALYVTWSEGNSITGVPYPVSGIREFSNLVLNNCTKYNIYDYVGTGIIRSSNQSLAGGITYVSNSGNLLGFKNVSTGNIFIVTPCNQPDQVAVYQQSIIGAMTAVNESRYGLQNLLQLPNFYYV
Briefly: titration ELISA.

A further assay deals with T4, HCov-HKU1 Spike protein (HCoV-HKU1, UniProt Q5MQD0 13-760).
T4 sequence: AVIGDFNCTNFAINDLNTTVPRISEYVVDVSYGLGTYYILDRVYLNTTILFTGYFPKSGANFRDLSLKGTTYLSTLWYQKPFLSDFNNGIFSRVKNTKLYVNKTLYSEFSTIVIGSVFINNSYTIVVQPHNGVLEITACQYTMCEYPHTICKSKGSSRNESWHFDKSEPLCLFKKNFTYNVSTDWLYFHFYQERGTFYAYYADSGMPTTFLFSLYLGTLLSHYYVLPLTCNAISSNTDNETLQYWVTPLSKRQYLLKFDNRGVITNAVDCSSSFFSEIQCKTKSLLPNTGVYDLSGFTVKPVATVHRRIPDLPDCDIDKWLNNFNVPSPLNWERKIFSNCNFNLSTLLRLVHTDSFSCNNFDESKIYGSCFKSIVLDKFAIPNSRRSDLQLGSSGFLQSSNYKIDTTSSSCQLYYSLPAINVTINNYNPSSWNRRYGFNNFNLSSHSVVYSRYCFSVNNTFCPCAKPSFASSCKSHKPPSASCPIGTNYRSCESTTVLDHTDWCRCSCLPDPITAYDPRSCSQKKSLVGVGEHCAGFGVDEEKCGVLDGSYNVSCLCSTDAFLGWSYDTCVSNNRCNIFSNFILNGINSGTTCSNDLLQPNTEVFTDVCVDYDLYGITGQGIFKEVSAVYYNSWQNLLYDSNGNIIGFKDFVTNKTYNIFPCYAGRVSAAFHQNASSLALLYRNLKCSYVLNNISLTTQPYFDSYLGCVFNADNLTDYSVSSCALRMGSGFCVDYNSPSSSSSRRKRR
Briefly: titration ELISA.

A further assay concerns the target T5, MERS-CoV Spike protein (MERS-CoV, UniProt K9N5Q8 18-725).
T5 sequence: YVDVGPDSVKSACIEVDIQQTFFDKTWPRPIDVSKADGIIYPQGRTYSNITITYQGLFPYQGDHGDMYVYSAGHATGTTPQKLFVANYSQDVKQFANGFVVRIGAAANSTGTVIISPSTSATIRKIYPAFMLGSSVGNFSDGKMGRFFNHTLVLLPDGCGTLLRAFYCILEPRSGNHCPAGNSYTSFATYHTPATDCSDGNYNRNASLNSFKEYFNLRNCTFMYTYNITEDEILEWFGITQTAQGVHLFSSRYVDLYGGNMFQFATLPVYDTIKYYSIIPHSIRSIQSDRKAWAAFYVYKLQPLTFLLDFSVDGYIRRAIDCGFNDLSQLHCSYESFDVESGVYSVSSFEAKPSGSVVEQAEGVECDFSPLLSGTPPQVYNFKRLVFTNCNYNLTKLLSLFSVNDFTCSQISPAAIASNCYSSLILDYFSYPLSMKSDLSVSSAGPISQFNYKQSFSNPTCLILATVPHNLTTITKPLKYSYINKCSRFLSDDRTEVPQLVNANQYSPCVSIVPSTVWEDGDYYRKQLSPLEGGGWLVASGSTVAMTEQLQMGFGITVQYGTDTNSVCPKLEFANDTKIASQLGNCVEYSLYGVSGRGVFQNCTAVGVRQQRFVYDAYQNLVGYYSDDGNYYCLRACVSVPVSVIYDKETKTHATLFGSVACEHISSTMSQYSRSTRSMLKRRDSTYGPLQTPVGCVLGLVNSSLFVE
Briefly: titration ELISA.

B1: YU505-A01 (antibody, V domains shown)
VH: QVQLVQSGAEVKKPGASVKVSCKASGYTFTSYYMHWVRQAPGQGLEWMGIINPSGGSTSYAQKFQGRVTMTRDTSTSTVYMELSSLRSEDTAVYYCARDRHYYDSSGSSQATFLFDYWGQGTLVTVSS
VL: QSVLTQPPSVSGAPGQRVTISCTGSSSNIGAGYDVHWYQQLPGTAPKLLIYGNSNRPSGVPDRFSGSKSGTSASLAITGLQAEDEADYYCQSYDSSLNVFGTGTKLTVL
On to B1, for which the “ACE2 bound to RBD at 0.5 µg/ml antibody” value in [1] is under 60%. For the same molecule, the “Confluence Score in VERO E6 cell assay” value in assay [2] is over 99%. Moreover, the “ACE2 bound to RBD at 5 µg/ml antibody” value in assay [3] is under 30%.

B2: hybrid antibody: VL YU537-H11 (SEQ ID No. 402) with VH STE90-C11 (SEQ ID No. 1305) (antibody, V domains shown)
VH: QVQLVESGGGLVQPGGSLRLSCAASGLTVSSNYMSWVRQAPGKGLEWVSVIYSGGSTYYADSVKGRFTISRDDSKNTLYLQMNSLRAEDTAVYYCARDVADAFDIWGQGTMVTVSS
VL: QSVLTQPPSVSAAPGQKVTISCSGSSSNIGNNYVSWYQQLPGTAPKLLIYDTNKRPSGIPDRFSGSKSGTSATLGITGLQTGDEADYYCATWDSSLSVGVFGGGTKLTVL
With B2, the binding result in [4] is “binds”.

B3: YU537-H11 (antibody, V domains shown)
VH: EVQLLESGGGLIQPGGSLRLSCAASGLTVSSNYMSWVRQAPGKGLEWVSVIYSGGSTYYADSVKGRFTISRDNSKNALYLQMNSLRAEDTAVYYCARGESGSPYGMDVWGQGTLVTVSS
VL: B2 VL
For B3, the binding result with SARS-CoV-1 Spike protein, with HCoV-229E Spike protein, with HCoV-NL63 Spike protein, with HCov-HKU1 Spike protein and in the assay with MERS-CoV Spike protein was “no binding” throughout.

B4: STE90-C11 (antibody, V domains shown)
VH: B2 VH
VL: DIVMTQSPSFLSASVGDRVTITCRASQGISSYLAWYQQKPGKAPKLLIYAASTLQSGVPSRFSGSGSGTEFTLTISSLQPEDFATYYCQQLNSYPPFTFGPGTKVDIK
Turning to B4, the binding result in the assay with SARS-CoV-1 Spike protein, in the assay with HCoV-229E Spike protein, with HCoV-NL63 Spike protein, in the assay with HCov-HKU1 Spike protein and with MERS-CoV Spike protein was “no binding” each time.

B5: YU505-A02 (antibody, V domains shown)
VH: QVQLVESGAEVKKPGSSVKVSCKASGGTFSSYAISWVRQAPGQGLEWMGGIIPIFGTANYAQKFQGRVTITADESTSTAYMELSSLRSEDTAVYYCARQIWAYDSSGYPVPAEYFQHWGQGTLVTVSS
VL: QSVLTQPPSVSGAPGQRVTISCTGSSSNIGAGYDVHWYQQLPGTAPKLLIYGNSNRPSGVPDRFSGSKSGTSASLAITGLQAEDEADYYCQSYDSSLSGVVFGGGTKLTVL
Take B5: in assay [1], the “ACE2 bound to RBD at 0.5 µg/ml antibody” value was under 60%. For the same molecule, the “Confluence Score in VERO E6 cell assay” value in assay [2] was over 99%. Further, in assay [3], the “ACE2 bound to RBD at 5 µg/ml antibody” value was under 30%.

B6: YU505-A02 (antibody, V domains shown)
VH: B5 VH
VL: B5 VL
In the case of B6, the binding result with SARS-CoV-1 Spike protein, with HCoV-229E Spike protein, in the assay with HCoV-NL63 Spike protein, in the assay with HCov-HKU1 Spike protein and with MERS-CoV Spike protein was “no binding” each time.

B7: YU505-E01 (antibody, V domains shown)
VH: QVQLVQSGAEVKKPGSSVKVSCKASGGTFSSYSIVWVRQAPGQGLEWMGGIIPIFGTTNYAQKFQGRVTITADESTSTAFMELSNLKSEDTAVYFCARSLGATRDYWGQGTLVTVSS
VL: SYVLTQPPSVSEAPRQRVTISCSGSSSNIGNNAVNWYQQLPGKAPKLLIYYDDLLPSGVSDRFSGSKSGTSASLAISGLQSEDEADYYCAAWDDSLNGPVFGGGTKVTVL
B7: the “ACE2 bound to RBD at 0.5 µg/ml antibody” value in assay [1] was under 50%. Moreover, in assay [2], the “Confluence Score in VERO E6 cell assay” value is over 98%. Also, the “ACE2 bound to RBD at 5 µg/ml antibody” value in assay [3] is under 25%.

B8: YU505-F05 (antibody, V domains shown)
VH: EVQLLESGGGVVQPGRSLRLSCAASGFTFSSYGMHWVRQAPGKGLEWVAVMSYDGSKKYYADSVKGRFTISRDNSKNTLYLQMNSLRAEDTAVYYCVTQGMDVWGQGTLVTVSS
VL: QSVLTQPPSVSVAPGKTARITCGGNNIGSKSVHWYQQKPGQAPVLVIYYISDRPSGIPERFSGSNSGNTATLTISRVEAGDEAAYYCHVWDSSSDHVVFGGGTKLTVL
With B8, the “ACE2 bound to RBD at 0.5 µg/ml antibody” value in assay [1] was under 60%. Also, the “Confluence Score in VERO E6 cell assay” value in assay [2] is over 95%. In addition, the “ACE2 bound to RBD at 5 µg/ml antibody” value in assay [3] was under 30%.
